{"source": "the DeepSol protein solubility set", "data": [{"assay": "soluble on expression in E. coli; label from the status in PepcDB or PDB records", "values": [{"sequence": "MGSDKIHHHHHHMKETSRKSGASAAKGKVIITCAVTGAIHTPTMSPYLPITPDQIASEAIAAAQAGAAILHLHARDPETGKPDQTPEAFARFLPRVKQGTNAAINITTGGSPYMKVEERVRPAAQFKPEVASLNMGSINFGLYHLADKYETFKFDWEKPHLEATRDLVFRNSFKDIEYILATCYDNGTRFEFECYDIAHLYNLSHFADRGLVKPPFFVQSVFGLLGGIGTHPEDVAHMKRTADRLFGDQFRWSVLGAGASQLRIAAQSAALGGNIRVGLEDSLWAGKGKLAKSNAEQVVLARKIIEGLGMEVATPDEAREILSLKGGDKVAF", "soluble on expression in E. coli": "not soluble"}, {"sequence": "MGSDKIHHHHHHMKFFSLADEAEFKSIIISKNKAVDVIGSKLGGQVVSFSDEWFASAENLIQPTAPIRDPTRFVHSGAWYDGWETRRHNEMEYDWVIIKMGVAAAHIIGGEIDTAFFNGNHAPFVSIEALYDEGEEGNIVEDDSRWVEIVEKFECGPSQRHLFVRGNGLTKERFTHIKLKMYPDGGIARFRLYGRVVPPELKTKDHIIDLAYVCNGAVALKYSDQHFGSVDNLLLPGRGHDMSDGWETKRSRQPGHTDWAVIQLGRESSFIEKIIVDTAHFRGNFPQFITVEGCLKESESSENTGEGTWVELVGKSKTGPDKEHVYEIRKSIRVSHVKLTIIPDGGVKRIRVWGY", "soluble on expression in E. coli": "soluble"}, {"sequence": "MGSDKIHHHHHHMKFSIDRDALLKPLQLVSGAVERRHNLPILANLLVEVSGHSLKMTGTDLEVELVGEATVHGDVQEGRTTVPAKKLLDIVKSLPEQTEIKVEQQENKWLLRCGRSRFSLATLPAEEYPNVEAFRPDIEFTLKQGTLKSLIDSTQFSMANQDVRYYLNGLLIETEGNVLRAVATDGHRLALSHRMIEASLPEKQVIVPRKGVVELSRLLDAEDQDITLAIGESAIRATTATAVFTSKLVDGRFPDYRRVLPKGGDKIVIASRNQLKQALLRASILSNEKFRGVRILLEDGLLKITANNPEQEEAEEIIDVDYNSTTLEIGFNVSYLLDVLNSLRSDEVRVTLIDSNSSALIENHVEEDSMYVVMPMRL", "soluble on expression in E. coli": "not soluble"}, {"sequence": "MGSDKIHHHHHHMKFSLGPILYFWPKQQVFDFYQQAAESDVEHVYLGETVCSKRRELKLDDYLAIAHMLREAGKKVTLSTMTLLEAPAELRELGKYCDNGEFDVEANDVSAIGVLQEQGLNFTAGPGINIYNHQSLRRLIDMGMTRWVVPFELSRDWLQDVLQHNLIDTVRDCFDVEVFSFGHIPLAWSGRCFTARSENRPKDQCELCCIKYPEGREVKSQEGQQVFVLNGIQTQSGTRYNLINQLPGMNGLVDIVRISPQPEGTFDWLQRFRSNINGEHPVTLTSKENNGYWLQLAGLATG", "soluble on expression in E. coli": "not soluble"}, {"sequence": "MGSDKIHHHHHHMKFTINRTLFIEKLEKASATVDVKNPMPALQGVLLDCNSKGMILMGSDGTETVTLVTRFNVNSGDCTEPGKVLFAAAPVLKTIKKFKSEFIGLEHKNNELKIVESKKKQFSFCTMDHEEYPEIKIEAGEDWISLSQEQFVSMANGTLHAIPAMDTRKILTGVNLKSVDDKFFSIATDAHRLARLHFDCTKITIAKDGEVVLPIKSLKTALKLFNRETNLQLKLISDTQLLIRGESIIYQSRLLAGTYPDTARMVPDEFKSEIQLSREEFKNTLEQLSAFSSLIVLTSEGKESIHLKPQNSQVGTASVEIPCNQVEAFTLACNVEYLLQALQTITSETIAIKMISNQRPIVVVGAEDTTHSNLQLILPVRV", "soluble on expression in E. coli": "not soluble"}, {"sequence": "MGSDKIHHHHHHMKFYNREKEVAELKRVQELAFTQNSRMIVVTGRRRIGKTSLIKEALKGTPTVYLFIGRKAESILVTDFVKIVRETLSIFVPEGIPTFTNLMQYLFEVGKTRAFNIVIDEFQEFYNIRPDVFSDMQNLWDEYKQETKINLVISGSVYSLMQKIFTDHNEPLFGRADNILCLRAFKIGVLKQIMEDLASGYSNDDLLALYTLTGGIPKYVELFCDNQALTIDKMYDFVFSENSLFIDEGRNLLITEFGKNYGTYFSILSEIANGHYTQGEIESALGGTAIGGYLSKLENVYNLITRERPIFAKPGTKKNVRYVIGDNFLNFWFKYIEQNRSYIELQNFDDLRQLAKADYPTYSGRVLEKYFKQKLAETGGFKEIGSWWETKSSIGKQRINSYEIDIVALKSSGKKALIAEVKRVPENNYSHTVFMEKVEHLKQKEMSKYDIETQVLGLKDM", "soluble on expression in E. coli": "not soluble"}, {"sequence": "MGSDKIHHHHHHMKHAYLIIAHNEFEILKRLIQALDDERNDIYIHFDRKLNHYPDCRTSYAKLTFLEERMDVRWGDISVVDAEFALFDEAYRRGEYSYYHLLSGVDMPLKTQNYIHRFFEKNAGKEFVGYYQGNISKEIDRKVCRWHLFPKSFKETEGGLAVTKRVLRAGCVRLQSLLGIRRNKDINFRKGTQWLSISNELVGYLLQQQKEVRRVYTHTFCADEIFVQTICWNSSFRDRVYDMHDEGHGCLRMIGWKDNQLEEWKEKDFEILMNSEALFARKFSIRHIEVVDQILNEISK", "soluble on expression in E. coli": "not soluble"}, {"sequence": "MGSDKIHHHHHHMKHIGIIDVGSNSVRLLFAEITSKSSFKILTEFKEYVRLGSGFDSKGNITDNKIDSLISVLNLYKNFCNRFEDTEMVVTATEAFRRAKNQESIIQTVKNNLNLNIRVLSGEEEAYYDYFAAINTLDIKDGLIMDIGGSSTELILVANRTLKECVSLQFGAITLIEKFNIKDSIDEKQEKMLKDFLLESFSSIPWLKSISSTTLIGIGGSIRNIGKISKKQKDYPLNLIHNYIMPAKSAEDIYNDVKNKTLEQRKKIKGLSKDRADIFVGASLAVSMLVNILSINEIIICRNGLREGLLLSKLFHKKPIDNILDFSINNVLINNSINITHSFHVYKLTSLLFSSLQSVHKINISLDKVIKTASMFHNAGVNISYYYHHRHSAYIILNSSLYGISHKECVMSACIDIYQRSENIQSMLNEYGNMLEKEDIYAIKVIGILLRIAENLDKDLSGSIYDLKCIVDDAVVIIKTYSKEPSDFLISEAQNSSGLFKNTFNKSLYIV", "soluble on expression in E. coli": "not soluble"}, {"sequence": "MGSDKIHHHHHHMKHYALLISFLALSACSQGSEDLNEWMAQTRREAKAEIIPFQAPTLPVAPVYSPPQLTGPNAFDFRRMETDKKGENAPDTKRIKETLEKFSLENMRYVGILKSGQKVSGFIEAEGYVYTVGVGNYLGQNYGRIESITDDSIVLNELIEDSTGNWVSRKAELLLNSSDKNTEQAAAPAAEQN", "soluble on expression in E. coli": "not soluble"}, {"sequence": "MGSDKIHHHHHHMKIGFLSRWGATCGVGMHAEILAREFIRMGHEVVVFAPTEESASKEVKYYKRTEAQDPEFVKREIYTEVDNVTEEGWVKEEEILKENLDLLIIETFWRVPVKPLTRLIEKLKIPVISVFHEANIFKAREVVKLPCDKIVVFDRRFYDEILEFYEIPREKVEVISYPVMKPYDAEPERPVSEDKFLFFSFGRQPVEEYCDFLNALKKLRKRFDNVHYWIIRSDGRVDYEAEWITQWQKRPTVEKLYSYLKGSNVHLLPKGNTPNVVVSSTLYQIIASETPIVIRDSRFVETIETDVYGFGPIVKYRNIHDLVHKLELLMLDRELVEDIKKEVRVFVEKYGGDKIAQEFLDLAKTITK", "soluble on expression in E. coli": "not soluble"}, {"sequence": "MGSDKIHHHHHHMKIILGIPDLKIPVWTFKQPLMINQLNWDRPSWENETWVDSGGYQIMVRGIKVEIEKVVEKYKILDATQYMSLDIPSIPCHKPSELNYKYFEYLYTVFDKKIVPVIHAYDPESIKKSIDFYSQYTDLVAFGGIVPPTLNKSGNKKLAVAIYYLVRKLWKGKIHVLGAGSPFMRKVYFNADSVDTSTYRVKGIHGMVIIPGKGERYVGNRKIVWGTKRASEEELEILLSFLDKTHYPFQIRFDNWIDRSLINAWVLLNSEYESNNPLIRYSKKLDTFAEDEIEEEVNELCM", "soluble on expression in E. coli": "not soluble"}, {"sequence": "MGSDKIHHHHHHMKILFISSLYAPDIGGGAEIILQRTVEGLQQRGYSIAVLATTDRPGLQLAEVNRVKVYRAGLLNQYWHFMPQRPERLARFAWHWRDRYNGGMRDYVRQVIELEQPELVVCHNLTGWSVSAWDEITRANRPVVQVLHDLYLLCPSSTMFKKGQSCQRQCSLCTQFRKHHAQQSEQVSTVVGVSRFMLDTLQAQGYFKGARGYVVHNASPFTPPHAGQTKAADDTAPLRFGYLGTLSENKGVGWLINQFQHLPFKATLQIAGRGQSNDEKRFRAMATSPDISFVGFQKPEDFYQHIDVAIVPSMWNEPFGLVAVEACAHSRPVIASRMGGLPEIIQDQLNGLLCSPDDPDSLGLAMLKLHQQPELLARLGSQARNSVASLLNLDLMLDQYESIFAQTLQDRSTWHGERVQLDPG", "soluble on expression in E. coli": "not soluble"}]}]}
